Patent publication US20220119506A1 (NOVOBIND LIVESTOCK THERAPEUTICS, published 2022)

T1: PirA (Vibrio parahaemolyticus)
T1 construct: also called JHE-like toxin PirA-like; vp19
T1 chain: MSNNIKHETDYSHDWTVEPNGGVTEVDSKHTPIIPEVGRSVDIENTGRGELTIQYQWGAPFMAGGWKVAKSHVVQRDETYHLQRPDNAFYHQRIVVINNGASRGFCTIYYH

T2: PirB (Vibrio parahaemolyticus)
T2 construct: also called JHE-like toxin PirB-like
T2 chain: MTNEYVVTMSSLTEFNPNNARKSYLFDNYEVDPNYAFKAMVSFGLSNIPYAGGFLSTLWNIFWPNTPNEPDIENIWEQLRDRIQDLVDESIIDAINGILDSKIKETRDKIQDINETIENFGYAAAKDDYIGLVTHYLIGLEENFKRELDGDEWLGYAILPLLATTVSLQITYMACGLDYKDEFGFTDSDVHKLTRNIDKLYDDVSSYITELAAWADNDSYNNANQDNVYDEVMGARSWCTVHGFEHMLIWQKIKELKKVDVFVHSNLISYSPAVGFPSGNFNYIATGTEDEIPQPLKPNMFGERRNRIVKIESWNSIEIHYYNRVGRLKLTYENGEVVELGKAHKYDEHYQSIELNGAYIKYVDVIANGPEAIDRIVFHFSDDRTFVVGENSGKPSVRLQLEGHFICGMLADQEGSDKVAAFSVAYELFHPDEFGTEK


Biological target: T1, PirA
Test: phage ELISA, antigen-coated wells

Binder	binding above PBS-coated wells
NBX0605 (VHH, on phage in the phage ELISA) VHH: QVQLQESGGGLVQPGGALRLSCAASGSFFSIYAMAWYRQAPGKQRELVAGITSGSETNYADSVKGRFTISRDNAKNTVYLQMNSLKLEDTAVYYCNRWAPLTRLDYWGQGTQVTVSS	≥ 50%
NBX0402 (VHH, on phage in the phage ELISA) VHH: QVQLQQSGGSLVQAGGSLRLSCAASGLPFINYAMGWFRQAPGKDREIVAAIDWNGDSTYYAVSVKGRFTISRDNAKNTVTLQMNSLKPEDTAIYYCASHYQPYIRVSATRRFEADYWGQGTQVTVSS	≥ 50%
NBX0607 (VHH, on phage in the phage ELISA) VHH: QVQLQESGGGLVQAGGSLRLSCAASGGTFSRLTMGWFRQAPGEEREFVAAVSWVAETTDYADSVKGRFSISRDNSKNTVYLQMNSLKPVDTAVYYCAAGPRDMIRSRNIRSYDSWGQGTQVTVSS	≥ 50%
NBX0629 (VHH, on phage in the phage ELISA) VHH: QVQLQQSGGGLVQAGGSLRLSCAASGGTFSRLTIGWFRQAPGEERVFVAAVSWVAETTDYADSVKGRFSISRDNSKNTVYLQMNSLKPVDTAVYYCAAGPRDMIRSRNIRSYDSWGQGTQVTVSS	≥ 50%
NBX0619 (VHH, on phage in the phage ELISA) VHH: QVQLQQSGGGLVQAGGSLRLFCAASGGTFSRLTMGWFRQAPGEEREFVAAVSWVAETTDYADSVKGRFSISRDNSKNTVYLQMNNLKPVDTAVYYCAAGPRDMIRSRNIRSYDSWGQGTQVTVSS	≥ 50%
NBX0632 (VHH, on phage in the phage ELISA) VHH: QVQLQQSGGGLVQAGGSLRLSCAASGGTFSRLTMGWFRQAPGEEREFVAAVSWVAGTTDYADSVKGRFTISRDNSKNTVHLQMNSLKPVDTAVYYCAAGPRDMIRSRNIRSYDSWGQGTQVTVSS	≥ 50%
NBX0849 (VHH, on phage in the phage ELISA) VHH: QVQLQESGGGLVQAGGSLRLSCAASGRTFNRYAMGWFRQAPGKEREFVAAISWSGNTQYTDSVKGRFTISRDDAKNTVYLQMNSLKPEDTAVYYCALRIPASSSTTYYYADQYDYWGQGTQVTVSS	≥ 50%
NBX0401 (VHH, on phage in the phage ELISA) VHH: QVQLQQSGGGLVRAGGSLRLSCETSGRTFSSYTMGWFRQAPGKEREFVGTIDWWSSSSSYADSVKGRFTISRDNAKNTVYLQMNSLKPEDTAVYYCAASGKYGLAYSRRDYAYWGQGTQVTVSS	≥ 50%

Biological target: T2, PirB
Test: phage ELISA, antigen-coated wells

Binder	binding above PBS-coated wells
NBX0840 (VHH, on phage in the phage ELISA) VHH: QVQLQQSGGGLVQAGGSLRLSCAASGSIRSSNVMGWYRQTPGKQRELVATMTAGGLTNYADSVKGRFTISRDNAKNTVYLQMNSLKPEDTAVYYCHYRRIFNVYWGQGTQVTVSS	≥ 50%
NBX0640 (VHH, on phage in the phage ELISA) VHH: QVQLQESGGGLVQPGGSLRLSCAASGSIFSGNVMGWYRQVPGKQRDLVATITGGGITRYADSVKGRFTISRDNAKNTVYLQMNSLKPEDTAVYYCHYRRIMQQYWGQGTQVTVSS	≥ 50%
NBX0638 (VHH, on phage in the phage ELISA) VHH: QVQLQESGGGLVQAGGSLRLSCAASGSIFSGNVMGWYRQVPGKQRDLVATITGGGITRYADSVKGRFTISRDNAKNTVYLQMNSLKPEDTAVYYCNYRRIMQQYWGKGTLVTVSS	≥ 50%
NBX0644 (VHH, on phage in the phage ELISA) VHH: QVQLQESGGGLVQAGGSLRLSCAASGSIFSGNVMGWYRQVPGKQRDLVATITGGGITRYADSVKGRFTISRDNAKNKVYLQMNGLKPEDTAVYFCFYRRIMQQYWGQGTQVTVSS	≥ 50%
NBX0650 (VHH, on phage in the phage ELISA) VHH: QVQLQESGGGLVQAGGSLRLSCEASGSIFSGNVLGWYRQVPGKQRDLVATITGGGITRYADSVKGRFTISRDNAKNTVYLQMNALKPEDTAVYYCHYRRIMQQYWGQGTQVTVSS	≥ 50%
NBX0646 (VHH, on phage in the phage ELISA) VHH: QVQLQESGGGLVQAGGSLRLSCAASGSIFSGNVMGWYRQVPGNQRELVATITGGGVTRYADSVKARFTISRDNAKNTVYLQMNSLKPEDTAVYYCHYRRIMQQSWGQGTQVTVSS	≥ 50%
NBX0645 (VHH, on phage in the phage ELISA) VHH: QVQLQESGGGLVQAGGSLRLSCAASGSIFSGNVMGWYRQVPGKQRDLVATITGGGITHYADSVKGRFTISRDNAKNTVYLQMNSLKPEDTAVYYCLYRRIMQQYWGQGTQVTVSS	≥ 50%
NBX0647 (VHH, on phage in the phage ELISA) VHH: QVQLQESGGGSVPPGGSLRLSCAASGSIFSGNVMAWYRQVPGKQRDLVASMTGGGVTRYADSVIARFTISRDNVKNTVYLQMNSLKPEDTAVYYCHYRRIMQQYWGQGTQVTVSS	≥ 50%
NBX0643 (VHH, on phage in the phage ELISA) VHH: QVQLQESGGGLVQAGGSLRLSCEASGSIFSGNVMGWYRQVPGKQRDLVATMTGGGVTRYADSVKARFTISRDNAKNTVYLQMNSLKPEDTGVYYCHYRRIMQQYWGQGTQVTVSS	≥ 50%
NBX0639 (VHH, on phage in the phage ELISA) VHH: QVQLQESGGGLVQAGGSLRLSCAASGIVFSSIVMAWYRQAPGKQRELVASITNGGLVNSGDSVKGRFTISRDNAKNTVYLQMNSLKPEDTAVYYCNARRIMTSYWGQGTQVTVSS	≥ 50%
NBX0844 (VHH, on phage in the phage ELISA) VHH: QVQLQESGGGLAQTGDSLRLSCAASGRMFSGFVMGWYRQNPGKQRELVATITNGGLTHYGDSVKGRFTISRDNAKNTVYLQMNSLKSEDSAVYYCNARRLFTNYWGQGTQVTVSP	≥ 50%
NBX0642 (VHH, on phage in the phage ELISA) VHH: QVQLQQSGGGLVQAGGSLRLSCVASTVTFSRYAMGWFRQAPGKEREVVAGISGSGHRTYYGDFVKGRFTISRDNAKKTVYLQMNNLKPEDTAVYYCAGDLVAKFDSAYRVSYDSWGQGTQVTVSS	≥ 50%
NBX0834 (VHH, on phage in the phage ELISA) VHH: QVQLQESGGGSVQAGGSLRLSCAASESMFRDHNMGWYRQAPGKQRELVATISRGGLINYGDSVRGRFTISRDNAKNTIYLQMNSLKVEDTAVYYCNARRLLTTVWGQGTQVTVSP	≥ 50%
NBX0649 (VHH, on phage in the phage ELISA) VHH: QVQLQQSGGGLVQPGGSLTLSCAASGSIASGNVLGWYRQAPGKQRELVATITSGGLTHYKDSVKGRFTISRDNAKNMVFLQMNSLKPEDTAVYYCNYRRLATGYWGQGTQVTVSS	≥ 50%
NBX0836 (VHH, on phage in the phage ELISA) VHH: QVQLQQSGGGLVQPGGSLRLSCSASGIRLGSYVMGYYRQAPGKQRELVATVTSGGTTNRADSVKGRFTISRDNAKNAVYLQMNSLKPEDTAVYYCNARILFTNYWGQGTQVTVSS	≥ 50%
NBX0648 (VHH, on phage in the phage ELISA) VHH: QVQLQESGGGLVQAGGSLRLSCEASGIIFSSNVMGWYRQAPGKQRELVASRTSGGLTNYADSAKGRFTISRDNAKNTVYLQMNSLKPEDTAVYYCNARRLFTNYWGQGTQVTVSS	≥ 50%
NBX0641 (VHH, on phage in the phage ELISA) VHH: QVQLQESGGGLVQAGGSLRLSCAASGSISNSYVMGWYRQAPGKQRELVATITSGGLTNYAQSLKGRFTISRDNAKNTVYLQMTSLEPEDTAVYYCNARVIFTTYWGQGTQVTVST	≥ 50%
NBX0841 (VHH, on phage in the phage ELISA) VHH: QVQLQESGGGLVQAGGSLRLSCAASARTFIYKMGWFRQAPGKERDFVASIMWSVGNNYYYTDSAKGRFTISRDIAKNTMYLQMDSLEPEDTGEYYCAAATTSTQWRYWGQGTQVTVSS	≥ 50%
NBX0404 (VHH, on phage in the phage ELISA) VHH: QVQLQESGGGLVQAGDSLRLSCATSGRTFSRYTMGWFRQTPGKEREFVAAISWSGTYYTDSVKGRFTISVDNAKNTVYLQMNSLKPEDTAVYYCASGSRRLYYSSDIDYWGQGTQVTVSS	≥ 50%
NBX0405 (VHH, on phage in the phage ELISA) VHH: QVQLQESGGGLVQAGDSLRLSCATSGRTFSRYTMGWFRQTPGKEREFVAAISWSGTYYTDSVKGRFTISRDNAKNTVYLQMNSLKPEDTAVYYCVVGSRRLYYSSDINYWGQGTQVTVSS	≥ 50%
NBX0828 (VHH, on phage in the phage ELISA) VHH: QVQLQESGGGAVQAGGSLRLSCAGPRSIFSGNAMAWYRQVPGKQRETVATVNTGGLTWYGDFVKGRFTISRDDAKNTLLLQMDSLKPEDTAVYYCNAVLVRARGMWGQGTQVTVSS	≥ 50%
